{"source": "patent US12527876B2", "about": "“Insulin-like growth factor-chemotherapeutic conjugate for treating myelodysplastic syndrome” (IGF Oncology, LLC, priority 2017, dated 2026)", "molecules": {"B1": {"name": "IGF132: variant of IGF-1, SEQ ID NO: 4, disclosed in U.S. Pat. No. 4,876,242 (protein)", "chain": "FVNQHLCGSHLVEALYLVCGDRGFYFNKPTGYGSSSRRAPQTGIVDECCFRSCDLRRLEMYCAPLKPAKSA"}, "B2": {"name": "LR3IGF-MTX (conjugate)", "chain": "MFPAMPLSSLFVNGPRTLCGALVDALQFVCGDRGFYFNKPTGYGSSSRRAPQTGIVDECCFRSCDLRRLEMYCAPLKPAKSEA"}}, "key": {"MCF7-L tumors": {"test_system": "MCF7-L tumors", "assay": "In vivo tumor growth inhibition, MCF7-L xenografts", "set-up": "species or system nu/nu mice", "conditions": "day 22; IV days 0 and 5; IGF-MTX (long-R3-IGF-1-methotrexate) 10 nmol of MTX/g, free MTX 40 nmol/g", "experimental": "(§1) MCF7 cells (human breast adenocarcinoma cell line) were grown in Eagle's minimal essential medium supplemented with 0.1 mg/ml insulin and 10% FCS. The estrogen-dependent MCF7-L cell line was a gift from Deepali Sachdev of the University of Minnesota. MCF7-L cells were grown in modified IMEM medium (Invitrogen, Carlsbad, California, USA) supplemented with 0.1 mg/ml insulin. LNCaP cells (metastatic human prostatic adenocarcinoma) were grown in RPMI supplemented with glutamine and 10% FCS (Invitrogen, Carlsbad, California, USA). Cells were grown at 37° C. in a 5% CO2 humidified atmosphere. In each case, cells were grown to approximately two-thirds confluence, harvested by trypsinization, washed with rich medium and then washed twice with PBS and resuspended in phosphate buffered saline in BD matrigel matrix (Becton Dickinson, Franklin Lakes, New Jersey, USA). Cells were injected intradermally in mice on the back. An estrogen pellet (0.5 mg estradiol, 60-day release, Innovative Research of America, Sarasota, Florida, USA) was implanted subcutaneously between the shoulder blades two days before implanting MCF7 and MCF7-L cells. MCF7 and MCF7-L cells were implanted in 8-week-old female nu/nu mice. […]\nThe second in vivo study was conducted using an estrogen-dependent MCF7 strain, MCF7-L. Tumor cells were implanted, and mice were monitored for tumor growth. […]"}, "LNCaP cells [1]": {"test_system": "LNCaP cells", "assay": "In vitro proliferation assay of LNCaP cells, Cell Counting Kit-8", "assay_type": "cell-based, human", "conditions": "highest tested concentration of 2000 nM, P=0.003, IGF-MTX = long-R3-IGF conjugate", "experimental": "LNCaP cells were plated in a 96-well plate at 5,000 cells per well in RPMI+glutamine+10% FCS medium in 100 μl. After 24 hours, 100 μl fresh medium was added containing no drug (control), IGF-MTX or MTX at the indicated concentration. After 48 hours of further incubation, cell proliferation was assayed with the Cell Counting Kit-8 (Dojindo Molecular Technologies, Kumamoto, Japan) according to the manufacturer's instructions."}, "MCF7 cells": {"test_system": "MCF7 cells", "assay": "In vitro proliferation assay of MCF7 cells, tritiated thymidine (Example 15)", "assay_type": "cell-based, human", "experimental": "MCF7 was cultured in Eagle's Minimum Essential Medium, with 0.01 mg/ml human recombinant insulin, 10% fetal bovine serum, and pen/strep. For in vitro proliferation assays it was plated at 8,000 cells per well in a 96-well plate. […] After 5 more days, 1 uCi tritiated thymidine was added per well in 50 ul fresh medium. Six hours later the cells were harvested and radioactivity counted."}, "MCF-7 tumor cells": {"test_system": "MCF-7 tumor cells", "assay": "In vitro cytotoxicity assay: inhibition of proliferation of MCF-7 cells, CCK-8 (Example 6)", "assay_type": "cell-based", "conditions": "Homo sapiens, MCF7, read-out: IC50 (50% inhibition of cell proliferation)", "quoted_text": "Day 0. Five-thousand MCF7 cells were plated per well in a 96-well test plate in 100 ul of rich media on day 0.\nDay 1. A shadow plate was made for each test plate, with each well of the shadow plate containing media or 3× the intended final concentration of test agent in media in each well. As a negative control, media is used.\nAfter making the shadow plate, 50 ul is transferred from each well of the shadow plate to the corresponding well of the test plate to generate the final concentrations of test agent in the wells of the test plate.\nDay 5. Cell proliferation is determined by adding Dojindo CCK-8 reagent and incubating and measuring absorbance of the dye according to the manufacturer's instructions."}, "MCF7 tumors": {"test_system": "MCF7 tumors", "assay": "In vivo tumor growth inhibition, MCF7 xenografts", "set-up": "species or system nu/nu mice", "conditions": "IV days 0, 4 and 8; IGF-MTX (long-R3-IGF-1-methotrexate) 10 nmol of MTX/g, free MTX 40 nmol/g", "experimental": "as §1, with “mice. LNCaP cells were implanted in 8-week-old male nu/nu mice. The IGF-MTX conjugate was administered in 2 mM HCl, 1% glycerol. MTX was dissolved in PBS.” for “mice.”"}, "MDS": {"test_system": "MDS", "conditions": "higher-risk patients, phase III trial; cited from earlier work"}, "[2]": {"conditions": "rat, in vivo"}, "[3]": {"set-up": "species or system Beagle dogs", "conditions": "dog, in vivo", "source_text": "Toxicokinetic (TK) parameters for free MTX were estimated from plasma concentration-time data arising from a 5-dose once weekly intravenous infusion study with insulin-like growth factor (IGF) MTX conjugate at low (0.5 μEq/kg), mid (2.0 μEq/kg) and high (4.0 μEq/kg) MTX equivalent dose levels. No consistent differences in the plasma levels of MTX were observed between animals of different genders and thus data from males and females were combined. Plasma levels of MTX increased with time both during and following a 1-hour intravenous infusion of the IGF-MTX conjugate. […] Both the AUC∞ and Cmax values were dose proportional. […] The pharmacokinetics of MTX following Day 29 of dosing were similar to those following Day 1 of dosing.\nFollowing intravenous administration of the IGF-MTX conjugate in the dose range of 0.5-4.0 μEq/kg to Beagle dogs, serum levels of the IGF-MTX conjugate decreased quickly. There was no gender bias and an increase in serum exposure was observed on Day 29 compared to Day 1. […] The elimination of the IGF-MTX conjugate was marginally slower with successive doses, resulting in an increased plasma exposure. The elimination of the IGF-MTX conjugate preceded the development of maximal MTX concentrations."}, "[4]": {"test_system": "soluble IGF binding proteins", "conditions": "compared to wild-type IGF-1; Francis 1992, Tomas 1993, U.S. Pat. No. 4,876,242; cited from earlier work"}, "[5]": {"assay": "Solubility of IGF-1R ligand-MTX conjugates", "assay_type": "physicochemical", "conditions": "phosphate buffered saline, or any neutral pH solution containing salt, over about 50 mM NaCl"}, "LNCaP tumors": {"test_system": "LNCaP tumors", "assay": "In vivo tumor growth inhibition, LNCaP xenografts", "set-up": "species or system nu/nu mice", "conditions": "LNCaP model, 8 nmol/g IGF-MTX vs. 50 nmol/g MTX", "experimental": "as §1, with “back.” for “back. An estrogen pellet (0.5 mg estradiol, 60-day release, Innovative Research of America, Sarasota, Florida, USA) was implanted subcutaneously between the shoulder blades two days before implanting MCF7 and MCF7-L cells. MCF7 and MCF7-L cells were implanted in 8-week-old female nu/nu mice.”\nIn a final in vivo study, prostate cancer LNCaP cells were implanted intradermally on day 0 in mice, which were then randomized to different treatment groups. […] Tumor size was much smaller in the groups treated with 8 nmol/g or 3.2 nmol/g of the IGF-MTX conjugate (dosage expressed as moles of each MTX molecule) compared to mice treated with higher doses of free MTX (50, 20 or 8 nmol/g). […]"}, "[6]": {"target": "T1, dihydrofolate reductase (DHFR) (Homo sapiens, UniProt P00374)", "T1 construct": "purchased Sigma-Aldrich", "T1 sequence (P00374 1-187)": "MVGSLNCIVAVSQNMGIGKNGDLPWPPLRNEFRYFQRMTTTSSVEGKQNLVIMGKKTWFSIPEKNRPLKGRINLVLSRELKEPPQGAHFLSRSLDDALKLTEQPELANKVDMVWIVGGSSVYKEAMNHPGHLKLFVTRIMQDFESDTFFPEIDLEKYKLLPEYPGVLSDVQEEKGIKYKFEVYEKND", "assay": "Dihydrofolate reductase inhibition assay (Sigma-Aldrich kit)", "assay_type": "biochemical", "conditions": "IC50 in nEq/L divided by MTX per IGF; read-out: inhibition constant in terms of protein concentration", "experimental": "The experiments were done with the dihydrofolate reductase assay kit from Sigma-Aldrich (St. Louis, MO, USA), according to the manufacturer's instructions. In the assay dihydrofolate reductase is mixed with pH 7.5 buffer. […] It was incubated for 30 seconds to allow inhibitor binding. Then NADPH is added to 50 uM final concentration, and then dihydrofolic acid is added to 60 uM final concentration. The reaction is monitored by measuring absorbance at 340 nm."}, "LNCaP cells [7]": {"test_system": "LNCaP cells", "conditions": "48 hours, nM methotrexate groups, McTavish et al. 2009; cited from earlier work"}}}
{"molecule": "CN(Cc1cnc2nc(N)nc(N)c2n1)c1ccc(C(=O)N[C@@H](CCC(=O)O)C(=O)O)cc1", "note": "[Methotrexate, methotrexate]", "values": [{"measurement": "tumor growth inhibition", "setting": "MCF7-L tumors", "value": "inhibited about equally"}, {"measurement": "inhibition of proliferation compared with IGF-MTX", "setting": "LNCaP cells [1]", "value": "significantly greater inhibition than IGF-MTX"}, {"measurement": "IC50", "setting": "MCF7 cells; Homo sapiens, MCF7, parallel assay, free drug", "value": 17, "unit": "nM"}, {"measurement": "IC50 of MTX lower than IGF-MTX", "setting": "MCF7 cells; MCF-7 cells in vitro", "value": "about 50 fold"}, {"measurement": "IC50", "setting": "MCF-7 tumor cells", "value": 88, "unit": "nM"}, {"measurement": "tumor growth over 12 days of observation", "setting": "MCF7 tumors", "value": "tumors continued to grow"}]}
{"molecule": "Nc1ncn([C@@H]2O[C@H](CO)[C@@H](O)[C@H]2O)c(=O)n1", "note": "[azacitidine]", "values": [{"measurement": "patients with responses", "setting": "MDS", "value": "approximately 50%"}, {"measurement": "survival at 2 years of follow-up compared to conventional care", "setting": "MDS", "value": "doubled"}]}
{"molecule": "IGF-MTX", "values": [{"measurement": "decrease of platelets", "setting": "[2]", "value": "approximately 38%"}, {"measurement": "increase of mean spleen weight", "setting": "[2]", "value": "17 to 38", "unit": "%"}, {"measurement": "mean increases or decreases in blood glucose", "setting": "[2]", "value": "−1.8±7 to 7.5±3.4"}, {"measurement": "reduction in neutrophils", "setting": "[2]", "value": "50-57%"}, {"measurement": "reduction of WBC's", "setting": "[2]", "value": "5-35%"}, {"measurement": "apparent clearance of MTX", "setting": "[3]", "value": "0.34 to 0.46", "unit": "L/h/kg"}, {"measurement": "apparent volume of distribution of the IGF-MTX conjugate", "setting": "[3]", "value": "0.07 to 0.20", "unit": "L/kg"}, {"measurement": "decrease of apparent clearance on Day 29 compared to Day 1", "setting": "[3]", "value": "25-50%"}, {"measurement": "mean residence time of the IGF-MTX conjugate", "setting": "[3]", "value": "1.4 to 5.3", "unit": "h"}, {"measurement": "terminal half-life of the IGF-MTX conjugate", "setting": "[3]", "value": "2.5 to 4.6", "unit": "h"}, {"measurement": "apparent clearance of the IGF-MTX conjugate", "setting": "[3]; iv", "value": "0.02 to 0.05", "unit": "L/kg/h"}]}
{"molecule": "des(1-3)IGF1: lacks the first three residues of wild-type IGF-1, SEQ ID NO: 7 [reference compound]", "values": [{"measurement": "binding affinity to the soluble IGF binding proteins", "setting": "[4]", "value": "reduced binding affinity"}]}
{"molecule": "insulin-MTX: insulin conjugated to methotrexate", "values": [{"measurement": "solubility", "setting": "[5]", "value": "low solubility"}]}
{"molecule": "B1", "values": [{"measurement": "binding affinity to the soluble IGF binding proteins", "setting": "[4]", "value": "reduced binding affinity"}]}
{"molecule": "B2", "values": [{"measurement": "more effective than free MTX at fold lower molar dose of MTX groups", "setting": "LNCaP tumors", "value": "at least 6 fold"}, {"measurement": "IC50", "setting": "[6]", "value": 35, "unit": "nM"}, {"measurement": "solubility", "setting": "[5]", "value": "low solubility"}, {"measurement": "IC50", "setting": "LNCaP cells [7]", "value": "~1000", "unit": "nM"}]}
